In article doi:10.1101/2020.06.26.173310:
Where two headings read alike, the source gives them in different places.

Tests used:
[1] = biological target: response regulator from Deinococcus radiodurans (DrRR) (Deinococcus radiodurans strain R1) (UniProt Q9RZA5); assay: SPR
[2] = biological target: response regulator from Deinococcus radiodurans (DrRR) (Deinococcus radiodurans strain R1) (UniProt Q9RZA5); assay: SPR; remark: listed apart in the source
[3] = biological target: response regulator from Deinococcus radiodurans (DrRR) (Deinococcus radiodurans strain R1) (UniProt Q9RZA5); assay: SPR; remark: listed apart in the source
[4] = biological target: response regulator from Agrobacterium fabrum (AtRR) (Agrobacterium fabrum strain C58) (UniProt Q7CY46); assay: SPR
[5] = biological target: bacteriophytochrome from Deinococcus radiodurans (DrBphP) (Deinococcus radiodurans strain R1) (UniProt Q9RZA4); assay: ITC
[6] = biological target: bacteriophytochrome from Deinococcus radiodurans (DrBphP) (Deinococcus radiodurans strain R1) (UniProt Q9RZA4); assay: ITC; remark: listed apart in the source

Sequence of bacteriophytochrome from Deinococcus radiodurans (DrBphP) (Deinococcus radiodurans strain R1) (Q9RZA4 whole entry): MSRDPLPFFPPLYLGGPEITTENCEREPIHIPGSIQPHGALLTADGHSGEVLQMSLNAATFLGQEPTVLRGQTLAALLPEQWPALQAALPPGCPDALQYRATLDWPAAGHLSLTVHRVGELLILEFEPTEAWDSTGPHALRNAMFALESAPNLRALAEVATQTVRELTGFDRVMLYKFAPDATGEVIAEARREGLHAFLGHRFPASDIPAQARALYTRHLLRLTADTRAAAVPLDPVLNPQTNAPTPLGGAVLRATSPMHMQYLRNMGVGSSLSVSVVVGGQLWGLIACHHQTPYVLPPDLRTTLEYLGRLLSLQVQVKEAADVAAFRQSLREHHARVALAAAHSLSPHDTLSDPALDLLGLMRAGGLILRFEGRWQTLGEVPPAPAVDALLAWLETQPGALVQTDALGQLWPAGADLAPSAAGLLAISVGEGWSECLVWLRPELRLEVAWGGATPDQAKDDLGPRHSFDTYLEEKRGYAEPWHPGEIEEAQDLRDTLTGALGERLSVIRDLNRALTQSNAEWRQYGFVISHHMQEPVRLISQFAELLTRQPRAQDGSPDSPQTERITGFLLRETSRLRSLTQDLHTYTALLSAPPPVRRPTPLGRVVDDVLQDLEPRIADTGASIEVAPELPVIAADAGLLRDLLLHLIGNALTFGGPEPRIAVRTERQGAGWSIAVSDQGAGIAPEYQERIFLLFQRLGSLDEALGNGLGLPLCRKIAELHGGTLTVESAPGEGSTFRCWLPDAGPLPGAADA

bacteriophytochrome from Deinococcus radiodurans (DrBphP) (from UniProt Q9RZA4 1-755) (natural protein)
Kd [1]: 10 µM | Kd [2]: 60 µM | Kd [3]: 43 µM | stoichiometry N [3]: 1

phytochrome 1 from Agrobacterium fabrum strain C58 (AgP1) (from UniProt Q7CY45 1-736) (natural protein)
Kd [4]: > 200 µM

response regulator from Deinococcus radiodurans (DrRR) (from UniProt Q9RZA5 1-149) (natural protein)
Kd [5]: 10.5 µM | stoichiometry N [5]: 1 | Kd [6]: 35 µM
